Values of other authors, collected in paper PMC5075297.

How the values were obtained:
[1] = target: tropoelastin (Homo sapiens) (UniProt P15502)
[2] = target: cellular fibronectin (Homo sapiens) (UniProt P02751)
[3] = target: type I collagen (Homo sapiens) (UniProt P02452)
UniProt P02452, sequence (P02452 162-1218, chain 1 of 2): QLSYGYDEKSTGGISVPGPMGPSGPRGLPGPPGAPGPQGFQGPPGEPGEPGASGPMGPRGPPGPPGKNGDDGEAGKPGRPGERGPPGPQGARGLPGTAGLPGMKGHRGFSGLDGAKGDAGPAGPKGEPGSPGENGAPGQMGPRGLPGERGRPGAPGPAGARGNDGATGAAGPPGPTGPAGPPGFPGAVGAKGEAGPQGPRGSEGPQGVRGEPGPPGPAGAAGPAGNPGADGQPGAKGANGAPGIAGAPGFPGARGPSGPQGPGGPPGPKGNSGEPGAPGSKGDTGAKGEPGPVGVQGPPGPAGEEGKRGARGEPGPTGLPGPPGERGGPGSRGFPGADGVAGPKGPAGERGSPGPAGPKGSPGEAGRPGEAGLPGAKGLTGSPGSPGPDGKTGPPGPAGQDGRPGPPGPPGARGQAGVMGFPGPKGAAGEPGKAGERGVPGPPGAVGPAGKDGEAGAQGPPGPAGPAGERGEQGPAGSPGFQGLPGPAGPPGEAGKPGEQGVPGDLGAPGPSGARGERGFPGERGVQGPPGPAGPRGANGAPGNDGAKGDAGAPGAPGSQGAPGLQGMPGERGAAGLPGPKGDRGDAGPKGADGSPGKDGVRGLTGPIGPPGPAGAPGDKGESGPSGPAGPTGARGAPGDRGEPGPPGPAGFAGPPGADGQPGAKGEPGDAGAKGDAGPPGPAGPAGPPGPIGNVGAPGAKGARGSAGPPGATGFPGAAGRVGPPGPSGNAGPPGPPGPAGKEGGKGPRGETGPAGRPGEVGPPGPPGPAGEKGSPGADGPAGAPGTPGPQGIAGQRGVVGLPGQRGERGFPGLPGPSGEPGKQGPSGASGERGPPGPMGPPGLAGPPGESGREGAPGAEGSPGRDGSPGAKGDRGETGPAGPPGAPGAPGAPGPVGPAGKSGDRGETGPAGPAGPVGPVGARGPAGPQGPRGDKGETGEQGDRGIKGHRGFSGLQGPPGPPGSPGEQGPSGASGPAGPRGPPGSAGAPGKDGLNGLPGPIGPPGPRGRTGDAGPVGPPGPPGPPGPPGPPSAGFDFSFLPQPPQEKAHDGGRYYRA
UniProt P02452, sequence (P08123 80-1119, chain 2 of 2, further chain): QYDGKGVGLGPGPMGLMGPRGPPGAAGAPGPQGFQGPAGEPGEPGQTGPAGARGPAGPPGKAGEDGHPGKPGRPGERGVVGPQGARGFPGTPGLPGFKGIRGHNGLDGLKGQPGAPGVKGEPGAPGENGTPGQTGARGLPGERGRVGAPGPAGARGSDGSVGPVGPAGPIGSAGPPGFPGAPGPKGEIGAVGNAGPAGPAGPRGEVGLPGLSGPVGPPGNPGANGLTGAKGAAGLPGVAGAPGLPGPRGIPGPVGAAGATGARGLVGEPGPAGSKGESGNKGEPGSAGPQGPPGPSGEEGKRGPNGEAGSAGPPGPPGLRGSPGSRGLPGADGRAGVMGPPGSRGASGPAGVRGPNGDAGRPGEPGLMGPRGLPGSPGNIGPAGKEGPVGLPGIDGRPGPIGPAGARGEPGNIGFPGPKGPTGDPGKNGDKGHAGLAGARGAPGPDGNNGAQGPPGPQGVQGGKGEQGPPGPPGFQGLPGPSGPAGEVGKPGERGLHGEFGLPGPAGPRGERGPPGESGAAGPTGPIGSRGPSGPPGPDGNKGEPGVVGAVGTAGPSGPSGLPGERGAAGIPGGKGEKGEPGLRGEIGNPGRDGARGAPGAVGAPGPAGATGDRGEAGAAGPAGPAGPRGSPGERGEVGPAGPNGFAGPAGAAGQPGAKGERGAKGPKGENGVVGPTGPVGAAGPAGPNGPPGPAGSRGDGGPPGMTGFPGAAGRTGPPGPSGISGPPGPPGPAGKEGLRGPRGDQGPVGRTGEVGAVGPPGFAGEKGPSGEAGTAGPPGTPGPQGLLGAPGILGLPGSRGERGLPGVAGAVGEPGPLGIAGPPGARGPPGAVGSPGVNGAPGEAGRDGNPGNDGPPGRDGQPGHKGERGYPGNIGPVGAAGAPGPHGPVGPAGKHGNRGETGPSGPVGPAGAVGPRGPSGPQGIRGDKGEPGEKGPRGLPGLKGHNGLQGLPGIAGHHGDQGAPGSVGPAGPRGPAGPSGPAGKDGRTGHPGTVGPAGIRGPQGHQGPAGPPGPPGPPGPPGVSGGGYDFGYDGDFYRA

UniProt P02751, sequence (P02751 32-2477): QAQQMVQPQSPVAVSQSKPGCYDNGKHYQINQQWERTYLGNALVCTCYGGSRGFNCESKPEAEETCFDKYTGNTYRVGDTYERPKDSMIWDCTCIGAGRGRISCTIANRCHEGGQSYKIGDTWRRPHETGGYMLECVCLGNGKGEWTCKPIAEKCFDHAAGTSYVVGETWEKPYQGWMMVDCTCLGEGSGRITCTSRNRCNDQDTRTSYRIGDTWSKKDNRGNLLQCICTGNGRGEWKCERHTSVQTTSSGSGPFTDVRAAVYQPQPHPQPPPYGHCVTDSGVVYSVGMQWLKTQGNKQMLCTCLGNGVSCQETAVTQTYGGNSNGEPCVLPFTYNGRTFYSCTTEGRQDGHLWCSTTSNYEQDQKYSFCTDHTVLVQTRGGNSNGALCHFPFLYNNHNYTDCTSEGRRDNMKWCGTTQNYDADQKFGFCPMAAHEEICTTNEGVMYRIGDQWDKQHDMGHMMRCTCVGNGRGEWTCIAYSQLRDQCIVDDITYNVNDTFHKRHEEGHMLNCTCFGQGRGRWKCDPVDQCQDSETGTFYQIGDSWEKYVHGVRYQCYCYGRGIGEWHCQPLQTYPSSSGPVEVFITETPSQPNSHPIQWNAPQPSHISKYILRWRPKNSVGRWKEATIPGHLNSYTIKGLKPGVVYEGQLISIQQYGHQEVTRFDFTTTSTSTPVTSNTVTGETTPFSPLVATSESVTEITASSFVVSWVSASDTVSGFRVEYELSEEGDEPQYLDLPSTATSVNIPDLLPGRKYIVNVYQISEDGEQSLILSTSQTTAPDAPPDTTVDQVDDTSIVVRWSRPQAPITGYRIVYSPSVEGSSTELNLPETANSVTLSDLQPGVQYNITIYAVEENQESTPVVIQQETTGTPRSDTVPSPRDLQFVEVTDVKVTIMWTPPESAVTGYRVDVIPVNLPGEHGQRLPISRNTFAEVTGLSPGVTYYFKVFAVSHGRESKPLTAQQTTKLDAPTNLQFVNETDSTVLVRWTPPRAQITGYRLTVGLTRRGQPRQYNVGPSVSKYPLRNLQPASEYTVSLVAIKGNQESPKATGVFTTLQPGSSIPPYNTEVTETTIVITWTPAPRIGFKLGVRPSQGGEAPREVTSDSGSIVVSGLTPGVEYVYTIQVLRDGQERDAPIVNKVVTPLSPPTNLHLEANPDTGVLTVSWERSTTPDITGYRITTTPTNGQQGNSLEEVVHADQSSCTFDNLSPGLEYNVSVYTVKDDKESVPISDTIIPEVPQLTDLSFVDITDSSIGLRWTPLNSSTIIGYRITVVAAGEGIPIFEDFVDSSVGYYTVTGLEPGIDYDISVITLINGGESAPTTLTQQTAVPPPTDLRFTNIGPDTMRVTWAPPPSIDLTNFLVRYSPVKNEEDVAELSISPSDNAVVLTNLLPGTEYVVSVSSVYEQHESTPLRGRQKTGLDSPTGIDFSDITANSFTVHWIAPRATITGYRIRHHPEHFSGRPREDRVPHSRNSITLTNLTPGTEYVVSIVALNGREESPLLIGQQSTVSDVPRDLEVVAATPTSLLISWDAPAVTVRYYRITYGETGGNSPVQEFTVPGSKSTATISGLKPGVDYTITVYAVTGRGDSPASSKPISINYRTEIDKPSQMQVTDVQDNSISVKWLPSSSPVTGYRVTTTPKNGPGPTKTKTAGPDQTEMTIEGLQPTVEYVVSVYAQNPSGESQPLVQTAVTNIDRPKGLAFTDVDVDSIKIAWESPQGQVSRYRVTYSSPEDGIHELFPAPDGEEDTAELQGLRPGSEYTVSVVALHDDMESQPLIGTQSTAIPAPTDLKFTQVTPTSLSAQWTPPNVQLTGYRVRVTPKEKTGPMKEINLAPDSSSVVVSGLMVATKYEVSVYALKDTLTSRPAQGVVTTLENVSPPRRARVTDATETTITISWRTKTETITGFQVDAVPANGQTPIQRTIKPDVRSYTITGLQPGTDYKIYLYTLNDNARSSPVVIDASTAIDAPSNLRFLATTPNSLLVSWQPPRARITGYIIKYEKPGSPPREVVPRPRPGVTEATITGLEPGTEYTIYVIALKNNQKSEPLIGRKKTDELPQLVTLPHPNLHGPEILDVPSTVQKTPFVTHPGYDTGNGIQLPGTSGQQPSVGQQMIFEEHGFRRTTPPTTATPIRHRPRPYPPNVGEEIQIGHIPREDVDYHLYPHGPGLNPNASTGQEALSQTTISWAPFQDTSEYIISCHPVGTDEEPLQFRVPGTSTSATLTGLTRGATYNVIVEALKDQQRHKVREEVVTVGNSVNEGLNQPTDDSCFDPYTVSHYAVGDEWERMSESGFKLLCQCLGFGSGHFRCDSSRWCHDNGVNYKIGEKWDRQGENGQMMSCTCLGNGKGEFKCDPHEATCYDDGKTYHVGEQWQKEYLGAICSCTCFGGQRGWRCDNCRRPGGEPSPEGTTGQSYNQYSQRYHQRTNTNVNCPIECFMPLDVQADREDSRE

In the case of LOX (from UniProt P28300), the Kd [1] is listed as 1.9 nM, the Kd [2] is listed as 2.5 nM and the Kd [3] is listed as 5.2 nM.
